This series concerns the target T1, GST-ZPR1 (human, UniProt O75312 1-459).
T1 sequence: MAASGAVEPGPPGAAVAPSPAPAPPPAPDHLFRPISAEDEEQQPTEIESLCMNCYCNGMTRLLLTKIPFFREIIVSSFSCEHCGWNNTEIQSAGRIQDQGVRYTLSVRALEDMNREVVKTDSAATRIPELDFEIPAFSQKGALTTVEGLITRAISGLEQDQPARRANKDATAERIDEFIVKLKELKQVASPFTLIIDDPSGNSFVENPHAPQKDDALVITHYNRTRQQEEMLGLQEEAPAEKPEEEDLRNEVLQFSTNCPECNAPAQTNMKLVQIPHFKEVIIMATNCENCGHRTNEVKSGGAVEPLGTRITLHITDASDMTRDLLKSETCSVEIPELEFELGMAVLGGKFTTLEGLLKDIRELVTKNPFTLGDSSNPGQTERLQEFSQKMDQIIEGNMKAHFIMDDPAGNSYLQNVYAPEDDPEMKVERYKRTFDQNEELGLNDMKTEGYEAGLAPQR
Description: EMSA. For orientation: A gel shift assay detects complexes by their altered migration in electrophoresis.

Regarding CGAAACTACCTTCAACTCCATCATGAAGTGTGACGTGGAC (ssDNA) [DNA* 40 nt], the binding result is “binds”.

The values are drawn from PMC9536298.
